Data: publication PMC4937829 (Nature structural & molecular biology, 2016)

T1: Spy H96L 29-124 (Escherichia coli, UniProt P77754 52-147, H96L)
T1 sequence: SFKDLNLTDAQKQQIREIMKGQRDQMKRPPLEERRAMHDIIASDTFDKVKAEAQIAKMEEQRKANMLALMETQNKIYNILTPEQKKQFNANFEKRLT

B1: Spy 29-124 (wild type) (domain or fragment, Escherichia coli)
chain: SFKDLNLTDAQKQQIREIMKGQRDQMKRPPLEERRAMHDIIASDTFDKVKAEAQIAKMEEQRKANMLAHMETQNKIYNILTPEQKKQFNANFEKRLT

What was measured:
Spy 29-124 (wild type) [1] = target: B1; test: crystal structure
Spy 29-124 (wild type) [2] = target: B1; test: other fluorescence titration
Spy H96L 29-124 = target: T1, Spy H96L 29-124; test: crystal structure
crystal structure = target: the molecule itself; test: crystal structure

Binder | binding result (Spy 29-124 (wild type) [1]) | binding result (Spy H96L 29-124) | other results
Ac-ELFRQFYQLDAYPSGAWYYVPLGTQYTDAP-NH2 [bovine alpha casein S1 148-177 peptide] | binds | – | –
Im7 L18A L19A L37A H40W (natural protein, E. coli, UniProt Q03708 1-87, looked up) MELKNSISDYTEAEFVQAAKEIEKENVAATDDVLDVALEWFVKITEHPDGTDLIYYPSDNRDDSPEGIVKEIKEWRAANGKPGFKQG | – | – | binding result (Spy 29-124 (wild type) [2]): binds
wild-type (WT) E. coli Im7 (natural protein, UniProt Q03708 1-87, looked up) MELKNSISDYTEAEFVQLLKEIEKENVAATDDVLDVLLEHFVKITEHPDGTDLIYYPSDNRDDSPEGIVKEIKEWRAANGKPGFKQG | – | binds | –
Im7 L18A L19A L37A (natural protein, E. coli, UniProt Q03708 1-87, looked up) MELKNSISDYTEAEFVQAAKEIEKENVAATDDVLDVALEHFVKITEHPDGTDLIYYPSDNRDDSPEGIVKEIKEWRAANGKPGFKQG | – | binds | –
SISDYTEAEFVQLLKEIEKENVAATDDVLDVLLEHFVKIT [Im7 6-45 peptide] | binds | – | –
B1 | – | – | binding result (crystal structure): binds
